Data as given in publication PMC5794992.

Target: BraA.Gα1 (Gα subunit of B. rapa), GAL4 DNA-binding domain fusion (Brassica rapa)
Sequence (P18064 other isoform, or with tags, fused parts or gaps): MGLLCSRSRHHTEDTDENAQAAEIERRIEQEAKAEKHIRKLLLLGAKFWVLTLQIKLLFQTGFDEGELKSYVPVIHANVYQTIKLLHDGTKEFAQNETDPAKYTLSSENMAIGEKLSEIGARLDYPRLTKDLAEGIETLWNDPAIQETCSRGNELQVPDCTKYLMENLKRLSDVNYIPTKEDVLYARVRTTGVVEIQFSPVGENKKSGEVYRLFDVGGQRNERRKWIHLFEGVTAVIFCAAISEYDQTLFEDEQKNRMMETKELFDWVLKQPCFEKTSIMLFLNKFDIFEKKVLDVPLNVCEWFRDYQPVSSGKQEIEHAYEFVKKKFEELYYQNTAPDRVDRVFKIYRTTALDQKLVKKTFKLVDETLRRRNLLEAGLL

Substance	Km of steady state Pi release (ENZchek) from 1 μM GTP-loaded BraA.Gα1 with 0.1–2.0 μM purified RGS-domain of BraA.RGS1 (His-tagged proteins from E. coli)	Km of steady state Pi release (ENZchek) from 1 μM GTP-loaded BraA.Gα1 with 0.1–2.0 μM purified RGS-domain of BraA.RGS2 (His-tagged proteins from E. coli)
RGS-domain of BraA.RGS1 (C-terminal cytosolic domain containing the RGS-box), GAL4 activation domain fusion (domain or fragment)	0.244	
RGS-domain of BraA.RGS2 (C-terminal cytosolic domain containing the RGS-box), GAL4 activation domain fusion (domain or fragment)		0.311
